This is an account of results in US12480163.

In this data set the target is p53 (tumor protein 53, TP53).

B1: Wip1 (wild-type p53-induced phosphatase 1; encoded by the PPM1D gene) (protein)
chain: MAGLYSLGVSVFSDQGGRKYMEDVTQIVVEPEPTAEEKPSPRRSLSQPLPPRPSPAALPGGEVSGKGPAVAAREARDPLPDAGASPAPSRCCRRRSSVAFFAVCDGHGGREAAQFAREHLWGFIKKQKGFTSSEPAKVCAAIRKGFLACHLAMWKKLAEWPKTMTGLPSTSGTTASVVIIRGMKMYVAHVGDSGVVLGIQDDPKDDFVRAVEVTQDHKPELPKERERIEGLGGSVMNKSGVNRVVWKRPRLTHNGPVRRSTVIDQIPFLAVARALGDLWSYDFFSGEFVVSPEPDTSVHTLDPQKHKYIILGSDGLWNMIPPQDAISMCQDQEEKKYLMGEHGQSCAKMLVNRALGRWRQRMLRADNTSAIVICISPEVDNQGNFTNEDELYLNLTDSPSYNSQETCVMTPSPCSTPPVKSLEEDPWPRVNSKDHIPALVRSNAFSENFLEVSAEIARENVQGVVIPSKDPEPLEENCAKALTLRIHDSLNNSLPIGLVPTNSTNTVMDQKNLKMSTPGQMKAQEIERTPPTNFKRTLEESNSGPLMKKHRRNGLSRSSGAQPASLPTTSQRKNSVKLTMRRRLRGQKKIGNPLLHQHRKTVCVC
Consider B1, for which the “phospho-Serine15-p53 protein levels (Western blot) after combined ATSP-7041 and GSK2830371 treatment” value was “the combination of ATSP-7041 and GSK2830371 increased the phosphorylation of p53 at Serine 15 in two Ewing sarcoma cell lines”; the “phosphorylation of Serine 15 of p53 (Western blot) after GSK2830371 treatment” value was “GSK2830371 reduced the protein levels of Wip1 in a time-dependent manner and triggered a surge in phosphorylation of Serine 15 of p53”.
